Data taken from the RNAGym collection of RNA variant scans (doi:10.1073/pnas.2313332121).

B1: TPR t1 (parent)
chain: GACCAAUCUGCCCUCAGAGCUCGAGAACAUCUUCGGAUGCAGAGGAGGCAGGCUUCGGUGGCGCGAUAGCGCCAACGUCCUCAACCUCCAAUGCAUCCCACCACAUGAUGAUGCCUGAAGAGCCUUGGUUUUUUG

Variants of: B1
Assay: polymerase ribozyme fitness, log enrichment relative to wild type (log ratio); higher = more active; in vitro selection for triplet polymerase activity
Summary of the method: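 Mutant libraries for each subunit of a heterodimeric triplet polymerase ribozyme were made by PCR and then transcribed. Each library underwent one round of in vitro selection in triplicate: annealing with a biotinylated primer, the partner subunit and triplets, frozen incubation at −7 °C, gel excision of extended constructs, streptavidin-bead capture and RT-PCR. Input and output libraries were Illumina-sequenced, and only genotypes with ≥10 input reads and ≥1 read per output were kept. Fitness is the logarithm, base 2, of genotype enrichment over wild-type enrichment, computed from inverse-variance-weighted replicate averages.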

Going from C56U A83U to C56U A84G A91U C98A C99A G120U, the “polymerase ribozyme fitness (log ratio)” value falls from 0.108 to -7.08.

Compared with C56U A84G U133G, C56U A90U is higher in “polymerase ribozyme fitness (log ratio)” value: -1.14 for the first, -0.55 for the second.

Compared with C56U A95C, C56U A95G is higher in “polymerase ribozyme fitness (log ratio)” value: -1.26 for the first, 0.263 for the second.

C56U A100C and C56U A105C C123U are within 0.2 log units of each other in “polymerase ribozyme fitness (log ratio)” value: -1.29 for the first, -1.18 for the second.

Going from C56U A105U to C56U A105U G122A, the “polymerase ribozyme fitness (log ratio)” value falls from -2.17 to -2.96.

Compared with C56U A111C, C56U C62A is lower in “polymerase ribozyme fitness (log ratio)” value: -0.414 for the first, -5.47 for the second.

First: C56U C62G
Second: C56U C62U C101U G122A
The “polymerase ribozyme fitness (log ratio)” value of the first is lower: -5.27 for the first, -2.35 for the second.

Going from C56U C70U to C56U C70U C82G C124A U130C, the “polymerase ribozyme fitness (log ratio)” value rises from -0.666 to 0.377.

Compared with C56U C70U U78G U125G, C56U C72A G77A C97A is lower in “polymerase ribozyme fitness (log ratio)” value: -1.77 for the first, -3.63 for the second.

Compared with C56U C72G U129A, C56U C72U U78A C80A is lower in “polymerase ribozyme fitness (log ratio)” value: -1.89 for the first, -4.1 for the second.

Going from C56U C72U U112G G117U C124U to C56U C73G, the “polymerase ribozyme fitness (log ratio)” value rises from -2.21 to -2.

Compared with C56U C73U C76U, C56U C76A G93A G120C is lower in “polymerase ribozyme fitness (log ratio)” value: -2.54 for the first, -4.53 for the second.

First: C56U C76G
Second: C56U C79A C101U
The “polymerase ribozyme fitness (log ratio)” value of the first is lower: -2.08 for the first, -1.23 for the second.

First: C56U C79G C102U C104U
Second: C56U C80A
The “polymerase ribozyme fitness (log ratio)” value of the first is lower: -4.64 for the first, -1.98 for the second.

Compared with C56U C82A U106G G117U, C56U C85G is higher in “polymerase ribozyme fitness (log ratio)” value: -4.65 for the first, -2.65 for the second.

Going from C56U C85G A91U C101U U106C to C56U C88A G127C, the “polymerase ribozyme fitness (log ratio)” value rises from -4.05 to -1.72.

Going from C56U C89A U92C G117U to C56U C89U, the “polymerase ribozyme fitness (log ratio)” value rises from -5.23 to -0.281.

First: C56U C94A A105G
Second: C56U C97A
The “polymerase ribozyme fitness (log ratio)” value of the first is higher: -3.08 for the first, -4.36 for the second.

Going from C56U C97U A108G U116C U133G to C56U C97U U106A G127U, the “polymerase ribozyme fitness (log ratio)” value rises from -3.98 to -0.714.

Compared with C56U C98A, C56U C99A is lower in “polymerase ribozyme fitness (log ratio)” value: -5.17 for the first, -6.27 for the second.

Compared with C56U C99U, C56U C102A is higher in “polymerase ribozyme fitness (log ratio)” value: -3.34 for the first, -1.94 for the second.

First: C56U C102U
Second: C56U C104A
The “polymerase ribozyme fitness (log ratio)” value of the first is lower: -2.28 for the first, -1.58 for the second.

Compared with C56U C114U, C56U C115U is higher in “polymerase ribozyme fitness (log ratio)” value: -1.71 for the first, -0.661 for the second.

First: C56U C123A U126A
Second: C56U G57C C70A U92A
The “polymerase ribozyme fitness (log ratio)” value of the first is higher: 0.177 for the first, -6.45 for the second.

Going from C56U G57C G69C to C56U G60A C98U G117C C124U U130A, the “polymerase ribozyme fitness (log ratio)” value falls from -0.611 to -6.06.

C56U G61A U112G A121U and C56U G61C are within 0.2 log units of each other in “polymerase ribozyme fitness (log ratio)” value: -6.37 for the first, -6.29 for the second.

C56U G61U C82A A91G C114U and C56U G65A A83U are within 0.2 log units of each other in “polymerase ribozyme fitness (log ratio)” value: -6.55 for the first, -6.42 for the second.

First: C56U G65C
Second: C56U G69A
The “polymerase ribozyme fitness (log ratio)” value of the first is lower: -5.42 for the first, -3.53 for the second.

Compared with C56U G69A G113U C123G U130G, C56U G69C is higher in “polymerase ribozyme fitness (log ratio)” value: -6.22 for the first, -4.69 for the second.

Going from C56U G69C C89U C123U to C56U G69C G71A C79A G113U, the “polymerase ribozyme fitness (log ratio)” value rises from -7.26 to -6.83.

Going from C56U G69U A90C C94A C104G G113U G122A to C56U G69U C79U G120A U130G, the “polymerase ribozyme fitness (log ratio)” value rises from -6.84 to -1.59.

Compared with C56U G69U C82U A84U, C56U G93A is higher in “polymerase ribozyme fitness (log ratio)” value: -3 for the first, -0.279 for the second.

First: C56U G93C
Second: C56U G110C
The “polymerase ribozyme fitness (log ratio)” value of the first is higher: -0.768 for the first, -3.43 for the second.

Compared with C56U G110U C114U U125A, C56U G113A is higher in “polymerase ribozyme fitness (log ratio)” value: -3.23 for the first, -0.858 for the second.

C56U G117U and C56U G128U are within 0.2 log units of each other in “polymerase ribozyme fitness (log ratio)” value: -1.63 for the first, -1.65 for the second.

First: C56U U59A C101U G122A
Second: C56U U78C U87A
The “polymerase ribozyme fitness (log ratio)” value of the first is lower: -1.81 for the first, 0.212 for the second.

Compared with C56U U78G G93U G113A, C56U U81G C97U is higher in “polymerase ribozyme fitness (log ratio)” value: -2.45 for the first, -1.35 for the second.

Going from C56U U92C U106A to C56U U96C C99U, the “polymerase ribozyme fitness (log ratio)” value falls from -0.561 to -3.29.

Compared with C56U U109C, C56U U116A is lower in “polymerase ribozyme fitness (log ratio)” value: -2.15 for the first, -2.51 for the second.

Compared with C56U U116G, C56U U125A is higher in “polymerase ribozyme fitness (log ratio)” value: -2.23 for the first, -0.748 for the second.

Compared with C56U U131A, G57A is lower in “polymerase ribozyme fitness (log ratio)” value: -0.176 for the first, -0.653 for the second.

Going from G57A A100U to G57A C70A, the “polymerase ribozyme fitness (log ratio)” value falls from -1.61 to -3.43.
